Experimental data: publication PMC5454378, “Histone deacetylase 10 structure and molecular function as a polyamine deacetylase” (Nature Communications, 2017)

Tests used:
Test in all cases: purified protein, by the assay type
[1] = substrate: CC(=O)NCCCCN; design: steady-state kinetics of acetylpolyamine deacetylation, discontinuous LC-MS after dansyl chloride derivatization; details: 50.0 °C
Experimental: (§1) To study steady-state kinetics with non-fluorogenic peptide substrates and acetylpolyamines, a discontinuous LC–MS was employed based on the protocol of assaying nonfluorogenic acetyllysine peptide substrates for HDAC6 (ref. [17]). Assays were performed in triplicate. Briefly, 5 μl of enzyme (0.050–20 μM) in HEPES buffer (20 mM HEPES (pH 7.5), 100 mM NaCl, 5 mM KCl, 1 mM MgCl2) was added to 35 μl of substrate solution to initiate the reaction. After incubation for 15–60 min at room temperature, the reaction was quenched by addition of 50 μl of 20 mM dansyl chloride dissolved in acetonitrile followed by 10 μl of NaHCO3 (1.6 M, pH 10.0). The deacetylation products were derivatized with dansyl chloride at 50 °C for 2 hrs. The deacetylation products were detected by LC–MS using a Waters SQD equipped with an Acquity UPLC (Waters, Milford, MA, USA) and quantified by using the standard curves generated from the mass signals of the corresponding deacetylated polyamines and peptides. Inhibition of HDAC10 activity was measured by using 0.49 μM zHDAC10 with 192 μM N^8-acetylspermidine. Data were analysed by logistic regression for IC50 determination and the inhibition constant Ki was calculated based on the Cheng-Prusoff equation, Ki=IC50 / (1+[S]/KM)[45]. Assays were performed in triplicate at room temperature. We next tested the PDAC activity of hHDAC10 and zHDAC10 against several polyamine substrates using the LC–MS assay (Fig. 2, Supplementary Fig. 3 and Supplementary Table 1). […] For hHDAC10 and zHDAC10, kcat/KM=2,900±200 and 4,600±300 M^−1 s^−1, respectively; in comparison, N^1-acetylspermidine was a poor substrate with kcat/KM=24±5 and 7±2 M^−1 s^−1, respectively. Substrate specificity trends observed for zHDAC10 and hHDAC10 matched those of the previously reported mammalian N^8-acetylspermidine deacetylase activity. […] As a negative control, we examined the N^8-acetylspermidine deacetylase activity of human and zebrafish HDAC6 (ref. [17]). HDAC6 preferentially catalyses the deacetylation of the peptide substrate RGK(ac)-AMC with a catalytic efficiency >100-fold greater than that for the deacetylation of N^8-acetylspermidine. Therefore, HDAC6 is clearly an acetyllysine deacetylase and HDAC10 is an N^8-acetylspermidine deacetylase. It is notable that the molecular function of HDAC10 coincides with the cellular function of the cytosolic PDAC indicated in Fig. 1a.

[2] = substrate: CC(=O)NCCCCNCCCN; design: steady-state kinetics of acetylpolyamine deacetylation, discontinuous LC-MS after dansyl chloride derivatization; details: 50.0 °C
Experimental: as §1

[3] = substrate: CCCCNC(C)=O; design: steady-state kinetics of acetylpolyamine deacetylation, discontinuous LC-MS after dansyl chloride derivatization; details: 50.0 °C
Experimental: as §1

[4] = substrate: CC(=O)NCCCCCCCCN; design: steady-state kinetics of acetylpolyamine deacetylation, discontinuous LC-MS after dansyl chloride derivatization; details: 50.0 °C
Experimental: as §1

[5] = substrate: CC(=O)NCCCCCN; design: steady-state kinetics of acetylpolyamine deacetylation, discontinuous LC-MS after dansyl chloride derivatization; details: 50.0 °C
Experimental: as §1

[6] = substrate: CC(=O)NCCCCNCCCNC(C)=O; design: steady-state kinetics of acetylpolyamine deacetylation, discontinuous LC-MS after dansyl chloride derivatization; details: 50.0 °C
Experimental: as §1

[7] = substrate: CC(=O)NCCCC[C@H](NC(=O)[C@H](C)NC(=O)CNC(C)=O)C(=O)Nc1ccc2c(C)cc(=O)oc2c1; design: fluorogenic AMC-conjugated acetyllysine peptide deacetylation, steady-state kinetics
Description: To determine steady-state kinetic parameters for the hydrolysis of a variety of acetylpolyamine and acetyllysine substrates, we prepared full-length recombinant HDAC10 from human (H. sapiens, hHDAC10) and zebrafish (D. rerio, zHDAC10). The CDs of these orthologues are highly similar based on 63%/79% sequence identity/similarity; only full-length constructs yielded soluble proteins. We first assayed the lysine deacetylase activity of these constructs against two commercially available aminomethylcoumarin (AMC)-conjugated fluorogenic acetyllysine peptides, GAK(ac)-AMC and RGK(ac)-AMC (molecular structures of all substrates are shown in Supplementary Fig. 2). […] These measurements were consistent with earlier studies reporting that HDAC10 activity was not measurable using fluorogenic peptide substrates. We also tested activity with 11 non-fluorogenic acetyllysine substrates using a […] chromatography–mass spectrometry (LC–MS)-based discontinuous assay[17] to avoid potential steric clashes that might occur with the bulky AMC group. These substrates included K(ac)NL and GAK(ac)NLQ, which mimic the peptide segment containing K73 in the proposed HDAC10 substrate MutS homologue 2 (MSH2)[22]. Again, we observed no or very low catalytic activity (Fig. 2 and Supplementary Table 1). In comparison with its closest relative, the cytosolic isozyme HDAC6 (ref. [17]), HDAC10 was clearly not an efficient lysine deacetylase.

[8] = substrate: CC(=O)NCCCC[C@H](NC(C)=O)C(N)=O; design: discontinuous LC-MS deacetylation assay, dansylated product quantified, steady-state kinetics; details: 50.0 °C
Experimental: To study steady-state kinetics with non-fluorogenic peptide substrates and acetylpolyamines, a discontinuous LC–MS was employed based on the protocol of assaying nonfluorogenic acetyllysine peptide substrates for HDAC6 (ref. [17]). Assays were performed in triplicate. Briefly, 5 μl of enzyme (0.050–20 μM) in HEPES buffer (20 mM HEPES (pH 7.5), 100 mM NaCl, 5 mM KCl, 1 mM MgCl2) was added to 35 μl of substrate solution to initiate the reaction. […] The deacetylation products were derivatized with dansyl chloride at 50 °C for 2 hrs. The deacetylation products were detected by LC–MS using a Waters SQD equipped with an Acquity UPLC (Waters, Milford, MA, USA) and quantified by using the standard curves generated from the mass signals of the corresponding deacetylated polyamines and peptides. Inhibition of HDAC10 activity was measured by using 0.49 μM zHDAC10 with 192 μM N^8-acetylspermidine. Data were analysed by logistic regression for IC50 determination and the inhibition constant Ki was calculated based on the Cheng-Prusoff equation, Ki=IC50 / (1+[S]/KM)[45]. Assays were performed in triplicate at room temperature.

B1: zHDAC10 (Danio rerio) (protein)
chain: ASGSALIFDEEMSRYKLLWTDPACEIEVPERLTVSYEALRTHGLAQRCKAVPVRQATEQEILLAHSEEYLEAVKQTPGMNVEELMAFSKKYNDVYFHQNIYHCAKLAAGATLQLVDSVMKREVRNGMALVRPPGHHSQRSAANGFCVFNNVAIAALYAKKNYNLNRILIVDWDVHHGQGIQYCFEEDPSVLYFSWHRYEHQSFWPNLPESDYSSVGKGKGSGFNINLPWNKVGMTNSDYLAAFFHVLLPVAYEFDPELVIVSAGFDSAIGDPEGEMCALPEIFAHLTHLLMPLAAGKMCVVLEGGYNLTSLGQSVCQTVHSLLGDPTPRISGLGTACDSALESIQNVRNVQSSYWSSFKHLAQSETNPKRPRLDATNGGPKESSEPASESNPKKTAQDIVWPEPLKRMPASVRTVVVPPPGVELTLPKNCQHSGDISESTAKEVQRIRDKHFHDLTDQNILRSLGNIISVLDRMMRSDEVCNGCVVVSDLSVSVQCALQHALTEPAERVLVVYVGDGELPVKTNDGKVFLVQICTKETEDKCVNRLSLCLREGESLTAGFMQALLGLILPVAYEFNPALVLGIVGETAAKTGLMTVWGHMTCLIQGLARGRTLTLLQGYDKDLLELTVSALSGASISPLGPLRALKPEDVEMMEKQRQRLQERWGLLRCTVSES
notes: full-length, residues 2–675
In the case of B1, the Km [1] is reported as 160 ± 50 µM, the kcat [1] is reported as 0.7 ± 0.1 s⁻¹ and the kcat/Km [1] is reported as 4200 ± 900 M⁻¹ s⁻¹. The Km [2] was 130 ± 20 µM, the kcat [2] was 0.58 ± 0.03 s⁻¹ and the kcat/Km [2] was 4600 ± 300 M⁻¹ s⁻¹. The Km [3] was 900 ± 200 µM, the kcat [3] was 0.06 ± 0.02 s⁻¹ and the kcat/Km [3] was 60 ± 20 M⁻¹ s⁻¹. The Km [4] was 170 ± 40 µM, the kcat [4] was 0.21 ± 0.02 s⁻¹ and the kcat/Km [4] was 1200 ± 200 M⁻¹ s⁻¹. It also gave a Km [5] of 90 ± 30 µM, a kcat [5] of 0.37 ± 0.04 s⁻¹ and a kcat/Km [5] of 3900 ± 300 M⁻¹ s⁻¹. The Km [6] was 180 ± 40 µM, the kcat [6] was 0.48 ± 0.08 s⁻¹ and the kcat/Km [6] was 2700 ± 300 M⁻¹ s⁻¹. It also gave a Km [7] of 22 ± 4 µM, a kcat [7] of 0.00033 ± 2e-05 s⁻¹ and a kcat/Km [7] of 15 ± 2 M⁻¹ s⁻¹. The Km [8] was 80 ± 10 µM, the kcat [8] was 0.013 s⁻¹ and the kcat/Km [8] was 160 M⁻¹ s⁻¹.
